Experimental data as given in publication PMC2965237.

Experiments:
Assay in all cases: EMSA
[1] = molecular target: RdgC H222A (Escherichia coli, UniProt P36767 1-303, H222A)
[2] = molecular target: RdgC E218R (Escherichia coli, UniProt P36767 1-303, E218R)
[3] = molecular target: RdgC R118A (Escherichia coli, UniProt P36767 1-303, R118A)
[4] = molecular target: RdgC R118C (Escherichia coli, UniProt P36767 1-303, R118C)
[5] = molecular target: RdgC F120T K227A (Escherichia coli, UniProt P36767 1-303, F120T;K227A)
[6] = molecular target: RdgC Δfinger R118C (Escherichia coli, UniProt P36767 1-303, P76G;L116T;R118C;del77-115)

B1: RGL13/17 (dsDNA)
DNA 1: GACGCTGCCGAATTCTGGCTTGCTAGGACATCTTTGCCCACGTTGACCC
DNA 2: GGGTCAACGTGGGCAAAGATGTCCTAGCAAGCCAGAATTCGGCAGCGTC
In the case of B1, the Kd [1] is reported as 12 nM, the Kd [2] is reported as 22 nM and the Kd [3] is reported as 6 nM. It also gave a Kd [4] of 6 nM.

With GACGCTGCCGAATTCTGGCTTGCTAGGACATCTTTGCCCACGTTGACCC (ssDNA) [RGL13] the Kd [1] was 5 nM, the binding result [5] was “no binding” and the Kd [3] was 6 nM. For the same binder, the Kd [4] was 6 nM and the Kd [6] was roughly 6000 nM.
